From patent US20240390520A1, “GENE EDITING OF PCSK9 OR ANGPTL3 AND COMPOSITIONS AND METHODS OF USING SAME FOR TREATMENT OF DISEASE” (Verve Therapeutics, Inc., priority 2021, published 2024)

Tested on: OT1 site
Assay: Off-target OT1 editing, MessengerMax transfection in PHH, Targeted Amplicon sequencing
Assay type: cell-based, human
Conditions: PHH lot STL, MessengerMax with mRNA MA079, 5,000 and 2,500 ng/mL total RNA
Experimental: The genomic DNA from PHH cells transfected with one of 20 sgRDNA spacer sequence variants were also tested for off-target editing percentage by targeted amplicon sequencing (FIGS. 31-32). The genomic DNA samples assessed were from cells that received doses of the total RNA of 5,000 ng/mL and 2,500 ng/mL. OT1 primer (GA0100_OT_B2) was used to measure editing percentage (A>G) in position 1-10 of the OT1 site (Table. 4). Technical replicates were performed.
Table. […] VEP Gene and VEP Consequence refer to the genomic location and functional role of OT1 as determined by the Ensembl Variant Effect Predictor (VEP) tool v98.3. […] The CADD score was determined using the Combined Annotation-Dependent Depletion v1.6 (CADD) framework, which aims to annotate and interpret human genetic variation through the integration of diverse annotations into a single measure. […] To bioinformatically assess the potential for oncogenesis due to editing at the off-target site, it was assessed whether OT1 is located within a gene in the Cancer Gene Census of the Catalogue of Somatic Mutations in Cancer (COSMIC) v92; it is not. […]

B1: GA690: ANGPTL3 sgRDNA spacer sequence variant with minimally modified tracrRNA (nucleic acid)
guide: AAGATACCTGAATAACCCTCGTTTTAGAGCTAGAAATAGCAAGTTAAAATAAGGCTAGTCCGTTATCAACTTGAAAAAGTGGCACCGAGTCGGTGCTTTT
modifications: DNA-containing spacer with minimally modified tracrRNA, spacer pattern not given here
For B1, the “off-target editing (A>G) at OT1, positions 1-10” value was “indeed edited at OT1”.
